For orientation: Kd means the constant that tells how readily two partners part at equilibrium. As a reminder, the koff is a measure of how fast the partners let go of each other. The kon is a measure of how fast the partners come together.

The results in this text go back to PMC5098251 (Scientific Reports, 2016).

Assay [1] addresses T1, FasR-Fc (Fc-fused Fas receptor) (Homo sapiens, UniProt P25445).
T1 construct: Fas receptor (FasR, CD95), human; also called Fas-Fc; CD95; source: bought: R&D Systems
Put plainly: on-bead binding assay read by flow cytometry (Bead Surface Display); SNAP-scFv-HA made by in vitro transcription/translation and held on streptavidin beads through BG-DNA anchors; beads incubated 1 h at room temperature with FasR-Fc (1 nM unless stated; 1, 10 and 30 nM in Fig. 2B), then with DyLight488-labelled goat anti-Fc; 1.5% marvel in PBS, washes with PBS and 0.05% Tween 20. The conditions noted are these: one partner purified. (In general: Flow cytometry measures light scatter and fluorescence of single cells or particles in a stream.)

Assay [2] has as its target T2, recombinant human FasR (Homo sapiens, UniProt P25445).
T2 construct: Fas receptor (FasR, CD95), human, recombinant; The FasR of the BLI and SPR experiments; Details are in Supplementary Protocols 8-10; also called recombinant FasR
The assay is described as follows: BLI; Octet Red384; recombinant human FasR; 1:1 Langmuir model; at least in duplicate; who was immobilised is not told (Supplementary Protocols 8-10). The conditions noted are these: both partners purified. A general note: BLI is a label-free optical method that tracks binding on a fibre tip over time.

Assay [3] deals with T2, recombinant human FasR. Put plainly: SPR; BIAcore T100; low density IgG-coated chip surface, recombinant human FasR; 1:1 Langmuir model; at least in duplicate. The conditions noted are these: both partners purified. (In general: Surface plasmon resonance follows binding to a sensor surface in real time, without labels.)

T1 sequence (P25445 26-173): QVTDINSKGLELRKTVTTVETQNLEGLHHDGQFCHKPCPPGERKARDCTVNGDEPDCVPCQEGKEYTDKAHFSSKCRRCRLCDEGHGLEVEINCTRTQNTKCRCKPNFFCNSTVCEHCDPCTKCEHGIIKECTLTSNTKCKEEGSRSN
T2 sequence (P25445 26-335): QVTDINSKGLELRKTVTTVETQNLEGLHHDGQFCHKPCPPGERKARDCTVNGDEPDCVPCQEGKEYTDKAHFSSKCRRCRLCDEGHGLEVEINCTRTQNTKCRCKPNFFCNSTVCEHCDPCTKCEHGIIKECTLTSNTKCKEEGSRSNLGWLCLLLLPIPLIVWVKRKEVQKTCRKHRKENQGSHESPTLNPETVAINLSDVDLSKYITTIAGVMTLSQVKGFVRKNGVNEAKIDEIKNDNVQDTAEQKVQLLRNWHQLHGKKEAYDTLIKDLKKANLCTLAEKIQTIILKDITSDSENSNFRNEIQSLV

B1: SNAP-A11b scFv-HA (scFv, V domains shown)
VH: QLQLQESGPGLVKPSETLSLTCTVPGASISANSYYGVWVRQSPGKGLEWVGSIAYRGNSNSGSTYYNPSLKSRATVSVDTSKNQVSLRLTSVTAADTALYYCARRQLLDDGTGYQWAAFDVWGQGTMVTVSG
VL: QSVLTQPPSVSEAPRQTVTISCSGNSFNTGRYPVNWYQQLPGKAPKLLIYSNNLRLSGVSDRFSGSKSGTSASLAIRDLLSEDEADYYCSTWDDTLEGWVFGGGTKVTVL
notes: numbers count on: Kabat numbering; scFv linker, as in m6; On-bead form of m14; not shown: SNAP-tag, N-terminal, kept; HA, C-terminal, kept
For the molecule B1, in assay [1], the “fold increase of MFS over E09” value was over 2 fold.

B2: A11b scFv (scFv, V domains shown)
VH: QLQLQESGPGLVKPSETLSLTCTVPGASISANSYYGVWVRQSPGKGLEWVGSIAYRGNSNSGSTYYNPSLKSRATVSVDTSKNQVSLRLTSVTAADTALYYCARRQLLDDGTGYQWAAFDVWGQGTMVTVSG
VL: QSVLTQPPSVSEAPRQTVTISCSGNSFNTGRYPVNWYQQLPGKAPKLLIYSNNLRLSGVSDRFSGSKSGTSASLAIRDLLSEDEADYYCSTWDDTLEGWVFGGGTKVTVL
notes: numbers count on: Kabat numbering; scFv linker, as in m6; Selected by BeSD, round IV
With B2, in the assay with recombinant human FasR [2], the dissociation constant Kd is 1.09 nM, the koff was determined as 0.000111 s⁻¹ and the on-rate (kon) stood at 130000 M⁻¹ s⁻¹.

B3: R4aS IgG (antibody, V domains shown)
VH: QLQLQESGPGLVKPSETLSLTCTVPGASISANSYYGVWVRQSPGKGLEWVGSIAYRGNSNSGSTYYNPSLKSRATVSVDTSKNQVSLRLTSVTAADTALYYCARRQLLDDGTGYQWAAFDNWDQGTMVTVSS
VL: QSVLTQPPSVSEAPRQTVTISCSGNSFNTGRYPVNWYQQLPGKAPKLLIYSNNLRLSGVSDRFSGSKSGTSASLAIRDLLSEDEADYYCSTWDDTLEGWVFGGGTKVTVL
notes: numbers count on: Kabat numbering; IgG heavy constant region; light constant region; IgG; also called antibody R4aS
B3: in the assay with recombinant human FasR [2], the Kd was 0.09 nM, the off-rate (koff) was 1.2e-05 s⁻¹ and the kon was found to be 249000 M⁻¹ s⁻¹. In addition, in the assay with recombinant human FasR [3], the Kd is 0.14 nM, the koff stood at 3.8e-05 s⁻¹ and the kon worked out at 282000 M⁻¹ s⁻¹.

B4: Ep6b_B01 scFv (scFv, V domains shown)
VH: QLQLQESGPGLVKPSETLSLTCTVSGASISANSYYGVWVRQSPGKGLEWVGSIAYRGNSNSGSTYYNPSLKSRATVSVDSSKNQVSLRLTSVTAADTALYYCARRQLLDDGTGYQWAAFDVWGQGTMVTVSS
VL: QSVLTQPPSVSEAPRQTVTISCSGNSSNIGRYPVNWYQQLPGKAPKLLIYSDNLRFSGVPDRFSGSKSGTTASLAIRDLLSEDEADYYCSTWDDTLEGWVFGGGTKVTVL
notes: numbers count on: Kabat numbering; scFv linker, as in m6
With B4, in the assay with recombinant human FasR [2], the Kd stood at 0.71 nM, the koff is 0.000125 s⁻¹ and the kon worked out at 214000 M⁻¹ s⁻¹.

B5: SNAP-A03a scFv-HA (scFv, V domains shown)
VH: QLQLQESGPGLVKPSETLSLTCTVPGASISANSYYGVWVRQSPGRGLEWVGSIAYRGNSNSGSTYYNPSLKSRATVSVDTSKNQVSLRLTSVTAADTALYYCARRRLLDDGTGYQWAAFDNWDQGTMVTVSS
VL: QSVLTQSPSVSEAPRQTVTISCSGNSFNTGRYPVNWYQQLPGKAPKLLIYSNNLRLSGVSDRFSGSKSGTSASLAIRDLLSEDEADYYCSTWDDTLEGWVFGGGTKVTVL
notes: numbers count on: Kabat numbering; scFv linker, as in m6; On-bead form of m11; not shown: SNAP-tag, N-terminal, kept; HA, C-terminal, kept
Take B5: the “fold increase of MFS over E09” value in assay [1] is over 2 fold.

B6: SNAP-A01b scFv-HA (scFv, V domains shown)
VH: QLQLQESGPGLVKPSETLSLTCTVPGASISANSYYGVWIRQSPGKGLEWVGSIAYRGNSNSGSTYYNPSLKSRATVSVDTSKNRVSLRLTSVTAADTALYYCARRQLLDDGTGYQWAAFDVWGQGTMVTVPS
VL: QSVLTQPPSVSEVPRQTVTISCSGNSFNIGRYPVNWYQQLPGKAPKLLIYHNNLRFSGVSDRFSGSKSGTSASLAIRDLLSEDEADYYCSTWDDTLKGWVFGGGTKVTVL
notes: numbers count on: Kabat numbering; scFv linker, as in m6; On-bead form of m10; not shown: SNAP-tag, N-terminal, kept; HA, C-terminal, kept
Consider B6, for which the “fold increase of MFS over E09” value in assay [1] was over 2 fold.

B7: SNAP-Ep6b_B01 scFv-HA (scFv, V domains shown)
VH: QLQLQESGPGLVKPSETLSLTCTVSGASISANSYYGVWVRQSPGKGLEWVGSIAYRGNSNSGSTYYNPSLKSRATVSVDSSKNQVSLRLTSVTAADTALYYCARRQLLDDGTGYQWAAFDVWGQGTMVTVSS
VL: QSVLTQPPSVSEAPRQTVTISCSGNSSNIGRYPVNWYQQLPGKAPKLLIYSDNLRFSGVPDRFSGSKSGTTASLAIRDLLSEDEADYYCSTWDDTLEGWVFGGGTKVTVL
notes: numbers count on: Kabat numbering; scFv linker, as in m6; not shown: SNAP-tag, N-terminal, kept; HA, C-terminal, kept
On to B7, for which, in assay [1], the “fold MFS over E09_Y58S (1 nM antigen)” value turned out to be 8.4 fold and the “fold MFS over E09_Y58S (30 nM antigen)” value came to 1.8 fold.

B8: A09a scFv (scFv, V domains shown)
VH: QLQLQEPGPGLTKPSETLSLTCTVPGASISADSYYGVWVRQSPGKGLEWVGSIAYRGNSNSGSTYYNPSLKSRATVSVDTSKNQVSLRLTSVTAADTALYYCARRQLLDDGTGYQWAAFDVWGQGTMVTVSS
VL: QSVLTQPPSVSEAPRQTVTISCSGNSFNIGRYPVNWYQQLPGKAPKLLIYHNNLRFSGVSDRFSGSKSGTSASLAIRDLLSEDEADYYCSTWDDTLKGWVFGGGTKVTVL
notes: as for B2
Regarding B8, in the assay with recombinant human FasR [2], the Kd was 2.63 nM, the koff came out at 0.00029 s⁻¹ and the kon was determined as 147000 M⁻¹ s⁻¹.
